Numbered stars: 1 amine (or outer) side, 2 acyl side, 3 side chain; on linkers, the order of the positions; unused ones are H or OH. Bridge positions count the residues as written; N and C are the ends. Side chains are listed from the residue outwards. Ends that are not written are not given here. * marks the point of attachment. C20 diacid = O=C(O)CCCCCCCCCCCCCCCCCCC(=O)*; γGlu = O=C(O)[C@H](CCC(=O)[*:2])N[*:1]; AEEA = NCCOCCOCC(=O)O

The target of assay [1] is T1, rat calcitonin receptor (rat, UniProt P32214 25-516).
T1 construct: whole, on cells; Membranes prepared from transiently transfected BHK tk'ts 13 cells (Assay VIII); also called rCTR; rCT
T1 sequence (looked up): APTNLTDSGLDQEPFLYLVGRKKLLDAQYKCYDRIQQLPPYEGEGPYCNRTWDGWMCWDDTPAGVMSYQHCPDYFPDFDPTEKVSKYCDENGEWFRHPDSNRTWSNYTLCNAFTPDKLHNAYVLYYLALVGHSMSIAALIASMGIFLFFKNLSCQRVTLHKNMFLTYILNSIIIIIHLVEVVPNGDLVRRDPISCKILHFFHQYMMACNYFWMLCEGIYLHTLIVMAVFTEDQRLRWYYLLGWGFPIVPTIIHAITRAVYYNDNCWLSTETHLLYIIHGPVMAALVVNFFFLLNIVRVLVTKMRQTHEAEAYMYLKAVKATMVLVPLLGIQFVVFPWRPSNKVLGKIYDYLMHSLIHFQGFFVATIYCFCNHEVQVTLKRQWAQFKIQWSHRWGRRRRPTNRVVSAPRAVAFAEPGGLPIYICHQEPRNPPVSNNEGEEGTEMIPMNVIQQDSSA
In words: ratio of binding IC50s: rat calcitonin receptor / rat amylin receptor (reference).

The target of assay [2] is T2, human calcitonin receptor (human, UniProt P30988 25-474).
T2 construct: whole, on cells; Membranes prepared from a stably transfected BHK cell line (Assay VII); also called hCTR; hCT
T2 sequence (looked up): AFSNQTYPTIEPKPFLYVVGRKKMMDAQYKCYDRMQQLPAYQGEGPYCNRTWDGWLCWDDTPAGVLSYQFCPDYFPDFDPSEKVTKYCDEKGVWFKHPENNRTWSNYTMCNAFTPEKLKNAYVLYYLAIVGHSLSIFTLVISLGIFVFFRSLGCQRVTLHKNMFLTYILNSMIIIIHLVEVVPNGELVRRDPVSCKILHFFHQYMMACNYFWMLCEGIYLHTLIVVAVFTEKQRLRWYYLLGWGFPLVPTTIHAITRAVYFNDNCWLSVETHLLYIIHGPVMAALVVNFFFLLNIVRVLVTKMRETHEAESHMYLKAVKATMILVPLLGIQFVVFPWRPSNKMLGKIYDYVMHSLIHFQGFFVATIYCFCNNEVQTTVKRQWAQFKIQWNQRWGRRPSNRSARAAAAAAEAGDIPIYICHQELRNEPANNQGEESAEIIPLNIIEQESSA
Description: ratio of binding IC50s: human calcitonin receptor / human amylin receptor (reference). In a few lines:
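IC₅₀ values were derived by one-site competition analysis of SPA counts. Cell membranes (35 ng/μL) with SPA beads were incubated with test compounds for 120 min at 25° C in Hepes buffer, pH 7.4, containing CaCl2, MgCl₂, OA and Tween20.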

In assay [3] the target is T1, rat calcitonin receptor. In words: SPA competition vs 125I-calcitonin, membranes of BHK cells with rat calcitonin receptor (Assay VIII).
For assay [4], the target named is T3, rat amylin receptor (rat calcitonin receptor + rat RAMP 3) (rat, UniProt P32214 25-516; Q9JJ73 23-147).
T3 construct: whole, on cells; Membranes prepared from transiently transfected BHK tk'ts 13 cells (Assay VI); also called rAmylin-R; rAmylin
T3 sequence (looked up) 1: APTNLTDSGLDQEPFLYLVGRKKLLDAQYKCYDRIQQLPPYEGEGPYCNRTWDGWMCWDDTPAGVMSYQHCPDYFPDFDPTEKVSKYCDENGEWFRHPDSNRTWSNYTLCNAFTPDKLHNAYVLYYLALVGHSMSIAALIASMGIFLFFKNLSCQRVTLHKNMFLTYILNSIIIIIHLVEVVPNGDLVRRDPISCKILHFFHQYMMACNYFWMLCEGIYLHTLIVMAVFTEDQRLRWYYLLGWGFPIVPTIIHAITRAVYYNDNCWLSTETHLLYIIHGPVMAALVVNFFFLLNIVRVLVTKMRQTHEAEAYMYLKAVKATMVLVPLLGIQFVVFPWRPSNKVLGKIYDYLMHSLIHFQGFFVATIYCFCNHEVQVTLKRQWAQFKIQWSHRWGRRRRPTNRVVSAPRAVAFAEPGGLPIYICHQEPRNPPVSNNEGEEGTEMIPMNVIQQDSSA
T3 sequence (looked up) 2: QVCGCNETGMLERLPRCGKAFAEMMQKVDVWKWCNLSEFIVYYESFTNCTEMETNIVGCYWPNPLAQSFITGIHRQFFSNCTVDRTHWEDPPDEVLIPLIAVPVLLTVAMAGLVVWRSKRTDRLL
Description: SPA competition vs 125I-rat amylin, membranes of BHK cells with rat calcitonin receptor + rat RAMP3 (Assay VI).

Assay [5] concerns the target T4, human calcitonin receptor (human, UniProt P30988 25-474).
T4 sequence (looked up): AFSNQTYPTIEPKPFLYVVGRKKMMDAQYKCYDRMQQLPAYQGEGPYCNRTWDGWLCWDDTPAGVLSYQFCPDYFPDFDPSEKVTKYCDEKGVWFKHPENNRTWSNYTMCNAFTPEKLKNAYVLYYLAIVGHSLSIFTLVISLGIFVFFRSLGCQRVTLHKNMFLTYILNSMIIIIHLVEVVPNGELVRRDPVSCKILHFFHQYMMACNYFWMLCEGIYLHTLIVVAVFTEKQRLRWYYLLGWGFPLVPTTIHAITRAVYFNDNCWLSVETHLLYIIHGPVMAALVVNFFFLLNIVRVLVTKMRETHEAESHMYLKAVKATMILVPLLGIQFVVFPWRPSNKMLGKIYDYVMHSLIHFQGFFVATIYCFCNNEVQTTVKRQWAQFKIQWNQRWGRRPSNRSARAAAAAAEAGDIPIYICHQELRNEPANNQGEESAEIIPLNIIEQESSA
In words: cell-based or functional assay.

B1: N^ε1-[2-[2-[2-(19-carboxynonadecanoylamino)ethoxy]ethoxy]acetyl]-[His14,Arg17,Pro21,Pro27]-h-amylin (peptide)
peptide: K([AEEA-C20 diacid])CNTATCATQRLAHFLRHSSPNFGAIPSSTNVGSNTY-NH2
modifications: disulfide 2-7; N-terminus assumed
SMILES: CC[C@H](C)[C@H](NC(=O)[C@H](C)NC(=O)CNC(=O)[C@H](Cc1ccccc1)NC(=O)[C@H](CC(N)=O)NC(=O)[C@@H]1CCCN1C(=O)[C@H](CO)NC(=O)[C@H](CO)NC(=O)[C@H](Cc1c[nH]cn1)NC(=O)[C@H](CCCNC(=N)N)NC(=O)[C@H](CC(C)C)NC(=O)[C@H](Cc1ccccc1)NC(=O)[C@H](Cc1c[nH]cn1)NC(=O)[C@H](C)NC(=O)[C@H](CC(C)C)NC(=O)[C@H](CCCNC(=N)N)NC(=O)[C@H](CCC(N)=O)NC(=O)[C@@H](NC(=O)[C@H](C)NC(=O)[C@@H]1CSSC[C@H](NC(=O)[C@@H](N)CCCCNC(=O)COCCOCCNC(=O)CCCCCCCCCCCCCCCCCCC(=O)O)C(=O)N[C@@H](CC(N)=O)C(=O)N[C@@H]([C@@H](C)O)C(=O)N[C@@H](C)C(=O)N[C@@H]([C@@H](C)O)C(=O)N1)[C@@H](C)O)C(=O)N1CCC[C@H]1C(=O)N[C@@H](CO)C(=O)N[C@@H](CO)C(=O)N[C@H](C(=O)N[C@@H](CC(N)=O)C(=O)N[C@H](C(=O)NCC(=O)N[C@@H](CO)C(=O)N[C@@H](CC(N)=O)C(=O)N[C@H](C(=O)N[C@@H](Cc1ccc(O)cc1)C(N)=O)[C@@H](C)O)C(C)C)[C@@H](C)O
notes: Analogue of human amylin; also called compound 90
As to B1, in assay [1], the “Ratio rCT/rAmylin binding” value came to 74.1. Besides, the “Ratio hCT/hAmylin binding” value in assay [2] was found to be 42.2. Further, the half-maximal inhibitory concentration (IC50) turned out to be 18.2 nM in assay [3] and 0.246 nM in assay [4].

B2: N^ε1-[2-[2-[2-[[(4S)-4-carboxy-4-(19-carboxynonadecanoylamino)butanoyl]amino]ethoxy]ethoxy]acetyl]-[His14,Arg17,Pro21,Pro27]-h-amylin (peptide)
peptide: K([AEEA-γGlu-C20 diacid])CNTATCATQRLAHFLRHSSPNFGAIPSSTNVGSNTY-NH2
modifications: disulfide 2-7; N-terminus assumed
SMILES: CC[C@H](C)[C@H](NC(=O)[C@H](C)NC(=O)CNC(=O)[C@H](Cc1ccccc1)NC(=O)[C@H](CC(N)=O)NC(=O)[C@@H]1CCCN1C(=O)[C@H](CO)NC(=O)[C@H](CO)NC(=O)[C@H](Cc1c[nH]cn1)NC(=O)[C@H](CCCNC(=N)N)NC(=O)[C@H](CC(C)C)NC(=O)[C@H](Cc1ccccc1)NC(=O)[C@H](Cc1c[nH]cn1)NC(=O)[C@H](C)NC(=O)[C@H](CC(C)C)NC(=O)[C@H](CCCNC(=N)N)NC(=O)[C@H](CCC(N)=O)NC(=O)[C@@H](NC(=O)[C@H](C)NC(=O)[C@@H]1CSSC[C@H](NC(=O)[C@@H](N)CCCCNC(=O)COCCOCCNC(=O)CC[C@H](NC(=O)CCCCCCCCCCCCCCCCCCC(=O)O)C(=O)O)C(=O)N[C@@H](CC(N)=O)C(=O)N[C@@H]([C@@H](C)O)C(=O)N[C@@H](C)C(=O)N[C@@H]([C@@H](C)O)C(=O)N1)[C@@H](C)O)C(=O)N1CCC[C@H]1C(=O)N[C@@H](CO)C(=O)N[C@@H](CO)C(=O)N[C@H](C(=O)N[C@@H](CC(N)=O)C(=O)N[C@H](C(=O)NCC(=O)N[C@@H](CO)C(=O)N[C@@H](CC(N)=O)C(=O)N[C@H](C(=O)N[C@@H](Cc1ccc(O)cc1)C(N)=O)[C@@H](C)O)C(C)C)[C@@H](C)O
notes: also called compound 69
Regarding B2, the “hCTR funct. EC50” value in assay [5] was 1.25 nM.
